From the supplement of paper PMC10567573

B1: TRIB1 (parent)
chain: EIGTSDQIVPEYQEDSDISSFFC

Variants of: B1
Test: protein stability index of a GFP-peptide fusion (GPS, HEK-293T) (PSI 1-6); higher = more stable
Settings: c terminus: native
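Also: lentivirally expressed fusions sorted by FACS into six bins by GFP to DsRed ratio, PSI derived from sequencing read proportions per bin multiplied by bin number.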

First: EIGTSDQIVPEYQEDGDISSFFC [S16G]
Second: EIGTSDQIVPEYQEDNDISSFFC [S16N]
The protein stability index of the first is higher: 2.9 for the first, 2.68 for the second.

Compared with EIGTSDQIVPEYQEDQDISSFFC [S16Q], EIGTSDQIVPEYQEDCDISSFFC [S16C] is lower in protein stability index: 3.32 for the first, 2.41 for the second.

Going from EIGTSDQIVPEYQEDVDISSFFC [S16V] to EIGTSDQIVPEYQEDMDISSFFC [S16M], the protein stability index falls from 3.02 to 2.45.

Going from EIGTSDQIVPEYQEDLDISSFFC [S16L] to EIGTSDQIVPEYQEDADISSFFC [S16A], the protein stability index rises from 2.65 to 3.03.

Going from EIGTSDQIVPEYQEDEDISSFFC [S16E] to EIGTSDQIVPEYQEDWDISSFFC [S16W], the protein stability index rises from 1.75 to 2.27.

First: EIGTSDQIVPEYQEDTDISSFFC [S16T]
Second: EIGTSDQIVPEYQEDPDISSFFC [S16P]
The protein stability index of the first is higher: 2.56 for the first, 1.86 for the second.

Going from EIGTSDQIVPEYQEDFDISSFFC [S16F] to EIGTSDQIVPEYQEDKDISSFFC [S16K], the protein stability index rises from 2.6 to 3.5.

First: EIGTSDQIVPEYQEDDDISSFFC [S16D]
Second: EIGTSDQIVPEYQEDYDISSFFC [S16Y]
The protein stability index of the first is lower: 2.15 for the first, 2.28 for the second.

Going from EIGTSDQIVPEYQEDRDISSFFC [S16R] to EIGTSDQIVPEYQEDIDISSFFC [S16I], the protein stability index falls from 4.11 to 2.04.

First: EIGTSDQIVPEYQEDHDISSFFC [S16H]
Second: EIGTSDQIVPEYQEDSDGSSFFC [I18G]
The protein stability index of the first is lower: 2.68 for the first, 3.6 for the second.

First: EIGTSDQIVPEYQEDSDESSFFC [I18E]
Second: EIGTSDQIVPEYQEDSDTSSFFC [I18T]
The protein stability index of the first is lower: 2.69 for the first, 3.64 for the second.

Compared with EIGTSDQIVPEYQEDSDKSSFFC [I18K], EIGTSDQIVPEYQEDSDFSSFFC [I18F] is lower in protein stability index: 4.39 for the first, 2.91 for the second.

Compared with EIGTSDQIVPEYQEDSDWSSFFC [I18W], EIGTSDQIVPEYQEDSDNSSFFC [I18N] is higher in protein stability index: 2.41 for the first, 3.75 for the second.

Going from EIGTSDQIVPEYQEDSDVSSFFC [I18V] to EIGTSDQIVPEYQEDSDQSSFFC [I18Q], the protein stability index rises from 3.08 to 3.9.

Going from EIGTSDQIVPEYQEDSDMSSFFC [I18M] to EIGTSDQIVPEYQEDSDRSSFFC [I18R], the protein stability index rises from 3.29 to 4.26.

First: EIGTSDQIVPEYQEDSDHSSFFC [I18H]
Second: EIGTSDQIVPEYQEDSDLSSFFC [I18L]
The protein stability index of the first is higher: 3.69 for the first, 2.92 for the second.

Compared with EIGTSDQIVPEYQEDSDCSSFFC [I18C], EIGTSDQIVPEYQEDSDYSSFFC [I18Y] is higher in protein stability index: 3.16 for the first, 3.25 for the second.

First: EIGTSDQIVPEYQEDSDPSSFFC [I18P]
Second: EIGTSDQIVPEYQEDSDSSSFFC [I18S]
The protein stability index of the first is lower: 2.88 for the first, 3.64 for the second.

Compared with EIGTSDQIVPEYQEDSDDSSFFC [I18D], EIGTSDQIVPEYQEDSDASSFFC [I18A] is higher in protein stability index: 3.36 for the first, 3.4 for the second.

Compared with EIGTSDQIVYEYQEDSDISSFFC [P10Y], EIGTSDQIVWEYQEDSDISSFFC [P10W] is lower in protein stability index: 4.71 for the first, 4.52 for the second.

Going from EIGTSDQIVTEYQEDSDISSFFC [P10T] to EIGTSDQIVQEYQEDSDISSFFC [P10Q], the protein stability index falls from 5.48 to 4.9.

Going from EIGTSDQIVVEYQEDSDISSFFC [P10V] to EIGTSDQIVSEYQEDSDISSFFC [P10S], the protein stability index rises from 5.1 to 5.59.

First: EIGTSDQIVREYQEDSDISSFFC [P10R]
Second: EIGTSDQIVPEYIEDSDISSFFC [Q13I]
The protein stability index of the first is higher: 5.56 for the first, 2.36 for the second.

Going from EIGTSDQIVPEYHEDSDISSFFC [Q13H] to EIGTSDQIVPEYREDSDISSFFC [Q13R], the protein stability index rises from 2.24 to 2.92.

Going from EIGTSDQIVPEYYEDSDISSFFC [Q13Y] to EIGTSDQIVPEYNEDSDISSFFC [Q13N], the protein stability index falls from 2.12 to 1.9.

Compared with EIGTSDQIVPEYCEDSDISSFFC [Q13C], EIGTSDQIVPEYVEDSDISSFFC [Q13V] is lower in protein stability index: 2.59 for the first, 2.52 for the second.

First: EIGTSDQIVPEYEEDSDISSFFC [Q13E]
Second: EIGTSDQIVPEYTEDSDISSFFC [Q13T]
The protein stability index of the first is higher: 2.77 for the first, 1.97 for the second.

Going from EIGTSDQIVPEYFEDSDISSFFC [Q13F] to EIGTSDQIVPEYPEDSDISSFFC [Q13P], the protein stability index rises from 1.81 to 3.5.

Going from EIGTSDQIVPEYGEDSDISSFFC [Q13G] to EIGTSDQIVPEYWEDSDISSFFC [Q13W], the protein stability index falls from 2.13 to 1.72.

Going from EIGTSDQIVPEYDEDSDISSFFC [Q13D] to EIGTSDQIVPEYLEDSDISSFFC [Q13L], the protein stability index falls from 2.9 to 2.77.

Going from EIGTSDQIVPEYMEDSDISSFFC [Q13M] to EIGTSDQIVPEYAEDSDISSFFC [Q13A], the protein stability index rises from 2.36 to 2.54.

First: EIGTSDQIVPEYSEDSDISSFFC [Q13S]
Second: EIGTSDQIVPEYKEDSDISSFFC [Q13K]
The protein stability index of the first is lower: 2.43 for the first, 3.39 for the second.

Compared with EIGTSDQIVPEWQEDSDISSFFC [Y12W], EIGTSDQIVPERQEDSDISSFFC [Y12R] is higher in protein stability index: 2.44 for the first, 4.61 for the second.

Going from EIGTSDQIVPEDQEDSDISSFFC [Y12D] to EIGTSDQIVPELQEDSDISSFFC [Y12L], the protein stability index falls from 5.11 to 3.06.

First: EIGTSDQIVPEIQEDSDISSFFC [Y12I]
Second: EIGTSDQIVPEMQEDSDISSFFC [Y12M]
The protein stability index of the first is higher: 2.91 for the first, 2.12 for the second.

Going from EIGTSDQIVPEAQEDSDISSFFC [Y12A] to EIGTSDQIVPEPQEDSDISSFFC [Y12P], the protein stability index rises from 3.25 to 3.4.

First: EIGTSDQIVPEFQEDSDISSFFC [Y12F]
Second: EIGTSDQIVPETQEDSDISSFFC [Y12T]
The protein stability index of the first is lower: 3.07 for the first, 4.48 for the second.

First: EIGTSDQIVPESQEDSDISSFFC [Y12S]
Second: EIGTSDQIVPENQEDSDISSFFC [Y12N]
The protein stability index of the first is lower: 4.19 for the first, 5.03 for the second.

First: EIGTSDQIVPEQQEDSDISSFFC [Y12Q]
Second: EIGTSDQIVPEGQEDSDISSFFC [Y12G]
The protein stability index of the first is higher: 4.51 for the first, 3.27 for the second.

Compared with EIGTSDQIVPECQEDSDISSFFC [Y12C], EIGTSDQIVPEKQEDSDISSFFC [Y12K] is higher in protein stability index: 3.68 for the first, 5.54 for the second.

Compared with EIGTSDQIVPEHQEDSDISSFFC [Y12H], EIGTSDQIVPEVQEDSDISSFFC [Y12V] is lower in protein stability index: 4.37 for the first, 3.07 for the second.

Compared with EIGTSDQIVPEEQEDSDISSFFC [Y12E], EIGTSDQIVPEYQEDSIISSFFC [D17I] is lower in protein stability index: 4.77 for the first, 3.28 for the second.

Compared with EIGTSDQIVPEYQEDSAISSFFC [D17A], EIGTSDQIVPEYQEDSEISSFFC [D17E] is lower in protein stability index: 3.21 for the first, 2.61 for the second.

Going from EIGTSDQIVPEYQEDSRISSFFC [D17R] to EIGTSDQIVPEYQEDSQISSFFC [D17Q], the protein stability index falls from 3.48 to 2.94.

Going from EIGTSDQIVPEYQEDSSISSFFC [D17S] to EIGTSDQIVPEYQEDSHISSFFC [D17H], the protein stability index rises from 3.13 to 3.47.

Going from EIGTSDQIVPEYQEDSWISSFFC [D17W] to EIGTSDQIVPEYQEDSVISSFFC [D17V], the protein stability index rises from 2.42 to 2.87.

Going from EIGTSDQIVPEYQEDSFISSFFC [D17F] to EIGTSDQIVPEYQEDSMISSFFC [D17M], the protein stability index falls from 3.2 to 3.16.

Going from EIGTSDQIVPEYQEDSKISSFFC [D17K] to EIGTSDQIVPEYQEDSNISSFFC [D17N], the protein stability index falls from 4.29 to 3.26.

For EIGTSDQIVPEYQEDSYISSFFC [D17Y], the protein stability index was 2.99.
